Measured values taken from paper doi:10.1101/403360.

Key:
[1] = biological target: wild type GluN2A C-terminus peptide (…); assay: SPR
[2] = biological target: wild type GluN2B C-terminus peptide (…); assay: SPR

Kd [1]: 310 nM
Kd [2]: 250 µM
Substance: isolated FRMPD2 PDZ2 domain (from UniProt A0A140LI67 934-1027) (domain or fragment)
